Experimental data from patent publication US10736988B2, “Bone substitute nanocomposites and methods of synthesis using multiphosphorylated peptides” (UNIVERSITY OF PITTSBURGH—OF THE COMMONWEALTH SYSTEM OF …, priority 2012, dated 2020).
Read-outs that look alike come from different tables or passages of the source.

Columns and labels:
[1] = tested on: collagen fibrils; settings: cited from earlier work
[2] = tested on: rabbit ulna critical size defect; experiment: In vivo bone regeneration, rabbit ulna critical size defect
Excerpt: A collagen scaffold containing […] indicated by SEQ NO. 2 peptide was implanted into a critical size defect in a rabbit ulna model. […] 2 peptide eight weeks after the surgery. […] FIG. 10A is a low-magnification image and FIG. 10B is a close up of the area in FIG. 10A identified by a rectangle, of H&E stained nondecalcified sections of the regenerating ulnar bone eight weeks after the surgery.

Row | Molecule | collagen fibril mineralization ([1]; nonphosphorylated protein) | collagen fibril mineralization ([1]; phosphorylated protein) | bone re-growth (MicroCT) ([2]; collagen scaffold containing peptide, 8 weeks, versus no implant) | bridging of the defect (H&E nondecalcified sections) ([2]; eight weeks after the surgery)
1 | dentin matrix protein 1 (protein, UniProt Q13316 17-513, looked up) Dentin matrix acidic …: LPVTRYQNNESEDSEEWKGHLAQAPTPPLESSESSEGSKVSSEEQANEDPSDSTQSEEGLGSDDHQYIYRLAGGFSRSTGKGGDDKDDDEDDSGDDTFGDDDSGPGPKDRQEGGNSRLGSDEDSDDTIQASEESAPQGQDSAQDTTSESRELDNEDRVDSKPEGGDSTQESESEEHWVGGGSDGESSHGDGSELDDEGMQSDDPESIRSERGNSRMNSAGMKSKESGENSEQANTQDSGGSQLLEHPSRKIFRKSRISEEDDRSELDDNNTMEEVKSDSTENSNSRDTGLSQPRRDSKGDSQEDSKENLSQEESQNVDGPSSESSQEANLSSQENSSESQEEVVSESRGDNPDPTTSYVEDQEDSDSSEEDSSHTLSHSKSESREEQADSESSESLNFSEESPESPEDENSSSQEGLQSHSSSAESQSEESHSEEDDSDSQDSSRSKEDSNSTESKSSSEEDGQLKNIEIESRKLTVDAYHNKPIGDQDDNDCQDGY | no organized mineralization of collagen fibrils was observed | highly organized mineralized collagen fibrils |  | 
2 | … (derived from consensus mammalian sequence of DSPP; (8)..(68) [Asp Ser Ser] repeats (n varies from 2 to 20); (1)..(3) Insertion of 3 Arg at the N terminus of the peptide; (4)..(7) Casein kinase 1 recognition motif; (69)..(71) Casein kinase 2 recognition motif) RRRDEDESSDSSDSSDSSDSSDSSDSSDSSDSSDSSDSSDSSDSSDSSDSSDSSDSSDSSDSSDSSDDEG |  |  | significant bone re-growth | almost complete bridging of the critical size defect by bone
3 | phosphophoryn (protein, UniProt Q9NZW4 463-1301, looked up, Dentin phosphoprotein, major non-collagenous protein in dentin, Ser-Ser-Asp repeat motifs) Dentin phosphoprotein: DDPNSSDESNGNDDANSESDNNSSSRGDASYNSDESKDNGNGSDSKGAEDDDSDSTSDTNNSDSNGNGNNGNDDNDKSDSGKGKSDSSDSDSSDSSNSSDSSDSSDSDSSDSNSSSDSDSSDSDSSDSSDSDSSDSSNSSDSSDSSDSSDSSDSSDSSDSKSDSSKSESDSSDSDSKSDSSDSNSSDSSDNSDSSDSSNSSNSSDSSDSSDSSDSSSSSDSSNSSDSSDSSDSSNSSESSDSSDSSDSDSSDSSDSSNSNSSDSDSSNSSDSSDSSNSSDSSDSSDSSNSSDSSDSSDSSNSSDSSDSSDSSDSSDSSNSSDSNDSSNSSDSSDSSNSSDSSNSSDSSDSSDSSDSDSSNSSDSSNSSDSSDSSNSSDSSDSSDSSDGSDSDSSNRSDSSNSSDSSDSSDSSNSSDSSDSSDSNESSNSSDSSDSSNSSDSDSSDSSNSSDSSDSSNSSDSSESSNSSDNSNSSDSSNSSDSSDSSDSSNSSDSSNSSDSSNSSDSSDSNSSDSSDSSNSSDSSDSSDSSDSSDSSDSSNSSDSSDSSDSSDSSNSSDSSNSSDSSNSSDSSDSSDSSDSSDSSDSSDSSDSSNSSDSSDSSDSSDSSDSSDSSDSSDSSESSDSSDSSNSSDSSDSSDSSDSSDSSDSSDSSDSSDSSNSSDSSDSSDSSDSSDSSNSSDSSDSSESSDSSDSSDSSDSSDSSDSSDSSDSSDSSNSSDSSDSSDSSDSSDSSDSSDSSDSSDSSDSSDSSDSSDSSDSSDSSDSSDSNESSDSSDSSDSSDSSNSSDSSDSSDSSDSTSDSNDESDSQSKSGNGNNNGSDSDSDSEGSDSNHSTSDD | no organized mineralization of collagen fibrils was observed | highly organized mineralized collagen fibrils |  | 
